# Measurements taken from US9879094B2, “Nucleic acid molecules encoding for BACE1 antibodies” (Genentech, Inc., priority 2010, dated 2018).
# “And” between values parts separate entries of the source, which are not always exact repeats. Equal values may be shown once. “Also recorded” adds a separate entry of the source.
# Legend:
# [1] = tested on: E16.5 cortical neurons and E16.5 hippocampal neurons; assay: Aβ40 production in cortical and hippocampal neurons; assay type: cell-based, mouse; details: 24 hours
# Protocol: Similar studies were also performed in dorsal root ganglia, cortical neurons and hippocampal neurons isolated from mice. Briefly, dissociated neuronal cultures were prepared from E13.5 dorsal root ganglia (DRG), E16.5 cortical neurons and E16.5 hippocampal neurons. Neurons were grown for five days in vitro. Fresh media containing YW412.8.31 anti-BACE antibody or control IgG1 was incubated with the neurons for 24 hours. Media was harvested and assayed for the presence of Aβ40 using the MSD® Rodent/Human (4G8) A1340 Ultrasensitive kit according to the Manufacturer's instructions. Aβ40 values were normalized for cell viability, as determined using the CellTiter-Glo Luminescent Cell Viability Assay (Promega). The experiment was performed at least three times, and each point was repeated in duplicate. Data was plotted using a four-parameter non-linear regression curve-fitting program (Kaleidagraph, Synergy Software).
# [2] = target: T1, murine BACE1 ECD (Mus musculus, UniProt P56818); assay: BIAcore SPR binding kinetics, mouse BACE1; details: mouse BACE1, pH 7.0, 25° C.
# T1 construct: human BACE1 ECD or murine BACE1 ECD (amino acids 1-457) was injected in PBT buffer
# T1 sequence (P56818 22-457): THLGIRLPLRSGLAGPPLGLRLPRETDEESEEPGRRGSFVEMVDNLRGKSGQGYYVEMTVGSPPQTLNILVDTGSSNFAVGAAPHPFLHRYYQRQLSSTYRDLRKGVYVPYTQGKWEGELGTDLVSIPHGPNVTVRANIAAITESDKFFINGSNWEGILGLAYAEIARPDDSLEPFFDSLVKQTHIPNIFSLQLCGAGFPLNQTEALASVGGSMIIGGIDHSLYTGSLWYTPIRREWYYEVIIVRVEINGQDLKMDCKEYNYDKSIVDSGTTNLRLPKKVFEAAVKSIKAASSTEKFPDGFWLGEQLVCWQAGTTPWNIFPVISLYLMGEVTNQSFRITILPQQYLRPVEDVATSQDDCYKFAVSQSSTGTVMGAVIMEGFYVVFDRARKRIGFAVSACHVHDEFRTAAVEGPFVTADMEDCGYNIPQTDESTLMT
# Protocol: (§1) The binding kinetics of YW412.8.31 was assessed. Briefly, binding affinities of anti-BACE1 IgGs were measured by surface plasmon resonance (SPR) using a BIAcore™-3000 instrument. YW412.8.31 anti-BACE1 human IgG was captured by mouse anti-human Fc antibody (GE Healthcare, cat# BR-1008-39) coated on CM5 biosensor chips to achieve approximately 100 response units (RU). For kinetics measurements, two-fold serial dilutions (0.98 nM to 125 nM) of human BACE1 ECD or murine BACE1 ECD (amino acids 1-457) was injected in PBT buffer (PBS with 0.05% Tween 20) at 25° C. with a flow rate of 30 μl/min. Association rates (kon) and dissociation rates (koff) were calculated using a simple one-to-one Langmuir binding model (BIAcore™ Evaluation Software version 3.2). The equilibrium dissociation constant (KD) was calculated as the ratio koff/kon.
# [3] = tested on: Aβ1-40 in wild-type C57Bl/6J mice; assay: Wild-type C57Bl/6J mice, IP dosing, Aβ1-40 levels; assay type: in vivo, mouse
# Protocol: Additional experiments with wild-type C57Bl/6J mice were performed in which 100 mg/kg of YW412.8.31, or a control IgG, was administered systemically. Levels of Aβ1-40 in both the plasma and forebrain of treated animals four hours after a single intraperitoneal (IP) injection were determined. Blood was collected from animals by cardiac puncture to isolate plasma.
# Following PBS perfusion, the brain was harvested and forebrain from one hemibrain was prepared in PK buffer (1% NP-40 in PBS, with Roche complete protease inhibitors) whereas forebrain from the other hemibrain was homogenized in 5M GuHCL, 50 mM Tris pH 8.0, and further diluted in Casein Blocking Buffer (0.25% casein/0.05% sodium azide, 20 μg/ml aprotinin/5 mM EDTA, pH 8.0/10 μg/ml leupeptin in PBS) for Aβ1-40 analysis.
# Additional experiments were performed in order to determine the effect of elevated brain antibody levels through repeated dosing. YW412.8.31 antibody, or control IgG, was administered at 30 or 100 mg/kg IP every 4 days for a total of 3 doses. In this study the levels of Aβ1-40 in both the plasma and forebrain of treated animals 4 hours post last dose were measured. Again, ˜50% reduction in plasma Aβ1-40 levels following multi-dosing at both 30 and 100 mg/kg was observed (FIG. 22, panel B). […] YW412.8.31 antibody concentrations in serum were 480±210 and 1500±440 μg/mL, and concentrations in brain were 0.9±0.6 μg/g (5.9±4.3 nM) and 3.0±1.6 μg/g (20±10 nM) following administration at 30 and 100 mg/kg given every 4 days, respectively.
# [4] = target: T2, human BACE1 ECD (Homo sapiens, UniProt P56817); assay: BIAcore SPR binding kinetics, human BACE1
# T2 construct: human BACE1 ECD or murine BACE1 ECD (amino acids 1-457) was injected in PBT buffer
# T2 sequence (P56817 22-457): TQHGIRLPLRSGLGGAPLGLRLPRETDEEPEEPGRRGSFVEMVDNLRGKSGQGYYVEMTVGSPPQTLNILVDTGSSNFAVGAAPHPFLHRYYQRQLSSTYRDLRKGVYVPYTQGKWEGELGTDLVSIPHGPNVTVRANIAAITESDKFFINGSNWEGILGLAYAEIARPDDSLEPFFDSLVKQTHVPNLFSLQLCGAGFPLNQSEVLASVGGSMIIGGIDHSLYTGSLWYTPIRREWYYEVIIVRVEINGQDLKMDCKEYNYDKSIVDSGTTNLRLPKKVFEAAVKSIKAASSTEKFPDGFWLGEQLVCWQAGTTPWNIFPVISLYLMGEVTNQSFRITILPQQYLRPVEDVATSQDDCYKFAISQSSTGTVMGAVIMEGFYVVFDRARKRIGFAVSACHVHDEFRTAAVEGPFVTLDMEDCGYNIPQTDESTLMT
# Protocol: as §1
# [5] = tested on: 293-HEK cells stably expressing wild-type human amyloid precursor protein; assay: Aβ1-40 production in 293-HEK cells expressing APP; assay type: cell-based
# Protocol: To determine whether the observed in vitro inhibitory action of the anti-BACE1 antibodies on APP processing was also present in a cellular context, […]. The ability of the antibodies to inhibit Aβ1-40 production in 293-HEK cells stably expressing wild-type human amyloid precursor protein was assessed as follows. 293-APP^WT cells were seeded overnight at a density of 3×10^4 cells/well in a 96-well plate. […] of fresh media (DMEM+10% FBS) containing an anti-BACE1 antibody or a control IgG1 antibody was incubated with the cells for 24 hours at 37° C. A tricyclic small molecule BACE1 inhibitor (BACE1 SMI) was also used as a control ((Compound 8e—Charrier, N. et al. J. Med. Chem. 51:3313-3317 (2008)). The cellular media was harvested and assayed for the presence of Aβ1-40 using a Aβ1-40 HTRF® assay (CisBio) according to the manufacturer's instructions. Aβ1-40 values were normalized for cell viability, as determined using the CellTiter-Glo Luminescent Cell Viability Assay (Promega). Experiments were performed at least three times, and each point in each experiment was repeated in duplicate. Data was plotted using a four-parameter non-linear regression curve-fitting program (Kaleidagraph, Synergy Software).
molecule,measurement,setting,value
"YW412.8.31: affinity matured form of YW412.8 anti-BACE1 antibody (antibody, V domains shown) VH: EVQLVESGGGLVQPGGSLRLSCAASGFTFLGYGIHWVRQAPGKGLEWVGWISPAGGSTDYADSVKGRFTISADTSKNTAYLQMNSLRAEDTAVYYCARGPFSPWVMDYWGQGTLVTVSS VL: DIQMTQSPSSLSASVGDRVTITCRASQDVSTAVAWYQQKPGKAPKLLIYSASFLYSGVPSRFSGSGSGTDFTLTISSLQPEDFATYYCQQFPTYLPTFGQGTKVEIK",IC50,[1],~2.5 nM
same,KON,[2],1.01 × 10^5 M^−1S^−1 and 1.4 × 10^5 M^−1S^−1
same,Kd,[2],1.4 nM and 2.1 nM
same,reduction of forebrain Aβ1-40,"[3]; 30 mg/kg IP, 3 doses every 4 days",no reduction; also recorded: not reduced
same,reduction of forebrain Aβ1-40,"[3]; 100 mg/kg IP, 3 doses every 4 days",42%
same,change in forebrain Aβ1-40,"[3]; 100 mg/kg single IP, 4 hours",no change; also recorded: not reduced
same,reduction of plasma Aβ1-40,"[3]; 100 mg/kg single IP, 4 hours",~50% and 48%
same,reduction of plasma Aβ1-40,"[3]; 30 and 100 mg/kg IP, 3 doses every 4 days, 4 hours after last dose",~50% and 50-53%
same,Binding to BACE1,[4]; at both pH 7.0 and 5.0,confirmed
same,KON,"[4]; human BACE1, IgG captured, pH 7.0, 25° C.",1.1 × 10^5 M^−1S^−1 and 1.05 × 10^5 M^−1S^−1
same,inhibition of Aβ1-40 production,"[5]; 24 hours, compared to non-BACE1 IgG (Xolair)",inhibited
same,maximum reduction of Aβ1-40 production,[5]; APP-expressing 293 cells,~90%
